Source: patent US20170088618A1

Tests used:
[1] = target: human PD-1 expressed on cells (human) (UniProt Q15116); test: cell-based or functional assay
[2] = target: human PD-1 expressed on cells (human) (UniProt Q15116); test: flow cytometry on CHO cells expressing human PD-1; detection with anti-human IgG Fc (PE GeoMFI); fit of a flat control curve
[3] = target: cynomolgus PD-1 expressed on cells (cynomolgus) (UniProt B0LAJ3); test: flow cytometry on CHO cells expressing cynomolgus PD-1; detection with anti-human IgG Fc (PE GeoMFI); fit of a flat control curve
UniProt B0LAJ3, sequence (B0LAJ3 entry or part of it limits assumed): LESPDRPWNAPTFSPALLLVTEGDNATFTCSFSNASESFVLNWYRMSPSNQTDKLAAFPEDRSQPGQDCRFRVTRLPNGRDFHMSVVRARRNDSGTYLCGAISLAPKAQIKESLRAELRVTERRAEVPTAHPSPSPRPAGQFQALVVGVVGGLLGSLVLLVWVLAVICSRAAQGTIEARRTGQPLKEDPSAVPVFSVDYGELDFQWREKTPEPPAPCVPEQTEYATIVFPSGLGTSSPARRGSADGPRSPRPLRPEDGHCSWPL

UniProt Q15116, sequence (Q15116 25-198 limits assumed): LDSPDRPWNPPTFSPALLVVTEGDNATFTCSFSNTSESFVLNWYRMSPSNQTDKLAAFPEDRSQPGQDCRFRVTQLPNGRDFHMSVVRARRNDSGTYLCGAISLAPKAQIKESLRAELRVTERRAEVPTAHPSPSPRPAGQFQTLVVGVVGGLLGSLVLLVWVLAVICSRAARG

Row | IL-17 and IFN-γ levels, human whole blood assay, EC50 [1] | LogEC50 [2] | LogEC50 [3] | Substance
1 | > 100 nM |  |  | human IgG Fc fragment
2 |  | -7.75 log10(nM) | -6.89 log10(nM) | huIgG1 Fc
